Results published in US11306156.

Tests used:
[1] = target: tissue factor (TF) antigen (UniProt P13726); assay: SPR (ProteOn XPR36), His-tagged Fab captured on anti-penta His, TF as analyte, 1:1 fit; batch C (+)
[2] = target: tissue factor (TF) antigen (UniProt P13726); assay: SPR (ProteOn XPR36), His-tagged Fab captured on anti-penta His, TF as analyte; against wild-type D3H44 Fab; batch C (+)
[3] = target: tissue factor (TF) antigen (UniProt P13726); assay: SPR (ProteOn), against wild-type D3H44 Fab; estimated value taken from the Fab differing only in L chain tag
[4] = target: tissue factor (TF) antigen (UniProt P13726); assay: SPR (ProteOn), Fab captured by anti-penta-His, TF as analyte, 1:1 fit; estimated value taken from the Fab differing only in L chain tag
[5] = target: tissue factor (TF) antigen (UniProt P13726); assay: SPR as for KD; reference: wild-type D3H44 Fab
[6] = target: tissue factor (TF) antigen (UniProt P13726); assay: SPR, ProteOn XPR36; His-tagged Fab captured on anti-penta-His, TF injected; 1:1 fit
[7] = target: tissue factor (TF) antigen (UniProt P13726); assay: SPR, Fab captured on anti-penta-His, TF as analyte, 1:1 fit; batch C
[8] = target: tissue factor (TF) antigen (UniProt P13726); assay: SPR, Fab captured on anti-penta-His, TF as analyte; against wild-type D3H44 Fab; batch C
[9] = target: tissue factor (TF) antigen (UniProt P13726); assay: SPR, against wild-type D3H44 Fab
[10] = target: tissue factor (TF) antigen (UniProt P13726); assay: SPR (ProteOn XPR36), Fab captured on anti-penta-His, TF injected, 1:1 fit

Sequence of tissue factor (TF) antigen (P13726 33-251 limits assumed): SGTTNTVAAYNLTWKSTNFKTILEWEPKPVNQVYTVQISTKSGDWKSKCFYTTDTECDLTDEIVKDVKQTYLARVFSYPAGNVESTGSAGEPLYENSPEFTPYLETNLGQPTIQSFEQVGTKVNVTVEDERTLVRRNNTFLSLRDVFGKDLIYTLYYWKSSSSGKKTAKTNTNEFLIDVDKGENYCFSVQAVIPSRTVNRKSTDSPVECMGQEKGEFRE

Substance: D3H44 Fab heterodimer, H1 Q39E_L143E_K145T / L1 Q38R_Q124R_Q160K_T178R (H1L1 Fab of LCCA Set # 9817)
- Kd [1]: 0.18 nM
- Change in median values of KD of h1|1 Fab heterodimer compared to wild type (-(log(KD design)-log(KD wt))) [2]: -0.05

Substance: D3H44 Fab heterodimer, H1L1 of LCCA set 9651 (H: L143E_K145T_Q179E; L: Q124R_Q160K_T178R)
- Change in KD with respect to wild type (-(log(KD design) - log(KD wt))) [3]: 0.02
- Kd [4]: 0.15 nM

Substance: D3H44 Fab heterodimer, H1L1 of LCCA Set # 9568 (H1 L124W_L143F; L1 V133A_S176T_T178L)
- change in median KD compared to wild type, -(log(KD design)-log(KD wt)) [5]: -0.28
- Kd [6]: 0.3 nM

Substance: D3H44 Fab heterodimer, H1L1 of LCCA set 9657 (H: L143E_K145T_Q179E; L: Q124R_T178K)
- Change in KD with respect to wild type (-(log(KD design) - log(KD wt))) [3]: -0.08
- Kd [4]: 0.19 nM

Substance: D3H44 Fab heterodimer, H1L1 of LCCA Sets # 9567 and 9566 (H1 L124W_L143F; L1 V133A)
- change in median KD compared to wild type, -(log(KD design)-log(KD wt)) [5]: -0.21
- Kd [6]: 0.25 nM

Substance: D3H44 Fab heterodimer, H1 S186R / L1 Q124E_T178E_T180E (H1L1 Fab of LCCA Set # 9889 and 9890)
- Kd [7]: 0.05 nM
- change in median KD compared to wild type, -(log(KD design)-log(KD wt)) [8]: 0.49

Substance: D3H44 Fab heterodimer, H1L1 of LCCA set 9683 (H: L143E_K145T_Q179E; L: T178R)
- Change in KD with respect to wild type (-(log(KD design) - log(KD wt))) [3]: -0.28
- Kd [4]: 0.3 nM

Substance: D3H44 Fab heterodimer, H1L1 of LCCA set 9131 (H: L124E_K145M_Q179E; L: S131K_V133G_S176R)
- Change in KD with respect to wild type (-(log(KD design) - log(KD wt))) [3]: 0.02
- Kd [4]: 0.15 nM

Substance: D3H44 Fab heterodimer, H1L1 of LCCA Sets # 9692, 9696, 9688, 9702 and 9700 (H1 L143E_K145T_Q179E_S188L; L1 Q124R_T178R)
- change in median KD compared to wild type, -(log(KD design)-log(KD wt)) [5]: -0.34
- Kd [6]: 0.34 nM

Substance: D3H44 Fab heterodimer, H1 Q39R_S186R / L1 Q38E_Q124E_Q160E_T180E (H1L1 Fab of LCCA Set # 9828)
- Kd [1]: 0.14 nM
- Change in median values of KD of h1|1 Fab heterodimer compared to wild type (-(log(KD design)-log(KD wt))) [2]: 0.07

Substance: H1L1 Fab heterodimer of LCCA Set # 9070 (D3H44 Fab; H1 F174G, L1 S131T_S176F_T178Y)
- Change in median values of KD of h1l1 Fab heterodimer compared to wild type (-(log(KD design)-log(KD wt))) [9]: 0
- Kd [10]: 0.16 nM

Substance: D3H44 Fab heterodimer, H1 S186R / L1 Q38E_Q124E_Q160E_T180E (H1L1 Fab of LCCA Set # 9905)
- Kd [1]: 0.1 nM
- Change in median values of KD of h1|1 Fab heterodimer compared to wild type (-(log(KD design)-log(KD wt))) [2]: 0.2

Substance: D3H44 Fab heterodimer, H1 L143E_K145T_P175C_Q179E / L1 Q124R_S162C_T178R (H1L1 Fab of LCCA Set # 9613)
- Kd [1]: 0.12 nM
- Change in median values of KD of h1|1 Fab heterodimer compared to wild type (-(log(KD design)-log(KD wt))) [2]: 0.12

Substance: D3H44 Fab heterodimer, H1 Q39R_D146G_Q179K / L1 Q38E_Q124E_Q160E_T180E (H1L1 Fab of LCCA Set # 9822)
- Kd [1]: 0.11 nM
- Change in median values of KD of h1|1 Fab heterodimer compared to wild type (-(log(KD design)-log(KD wt))) [2]: 0.17
